test system: Saccharomyces cerevisiae; experiment: transcriptional activation domain activity (GFP:mCherry ratio, weighted mean of sorted bins, harmonized to initial dataset scale) (arbitrary fluorescence ratio units); higher = stronger transcriptional activation; settings: beta-estradiol 1 µM; induction time 4 h
Summary of the method: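 In diploid yeast carrying a GFP reporter, barcoded protein tiles fused to an estradiol-inducible synthetic transcription factor were integrated at the URA3 locus. Cultures diluted 1:5 into SC with 1 uM beta-estradiol were kept at 30 °C for 4 hours, then sorted by GFP:mCherry ratio into 8 bins before barcode sequencing. Tiles with under 50 reads were excluded. The activation activity reported here is the read-weighted mean of bin median fluorescence, averaged across barcodes and linearly rescaled to the initial dataset.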

**Q.** Which “transcriptional activation domain activity” value does the source give for “AYNALQILSWTCRLICSSVLSLHWFRPGHESILQLYDSITFFLTMFFIELLSH” here?
**A.** 49100

**Q.** With “MLSVSLSFPFLLFFFSVSIFLLLLLLFSVSFILLLSLFFCSSFSFFNSFMVFF” as the sequence, how does the “transcriptional activation domain activity” value read?
**A.** 43100

**Q.** How did the “transcriptional activation domain activity” value turn out when “QGDYMCQYRGGLIGKHFKTLLQIMAFAVQDLVPPDVLEAWLILGRLTVLLWHM” was run?
**A.** 82000

**Q.** Which “transcriptional activation domain activity” value does the source give for “MDEEADEKGGKRRTSRACDGCRRRKIRCIASGEANSSEKAPCVNCAQSKLSCT” here?
**A.** 27500

**Q.** Which “transcriptional activation domain activity” value does the source give for “MARCYRLVMCFPFSLCFEYSALILTCSFFSPFIPFRLWCHAVPCGSGVFLFLH” here?
**A.** 65700

**Q.** With “KMEESKKRGTKRKSALASDSEEEEEVKPKPIAKPAKPAAKAESSVHVRKGVVL” as the sequence, how does the “transcriptional activation domain activity” value read?
**A.** 17700

**Q.** With “TRNSCVKIEKEDSLTNLNEIDFTNMFCNDNFIQNYNQGLMELLTEPTPGPSSS” as the sequence, how does the “transcriptional activation domain activity” value read?
**A.** 64700

**Q.** For “SAKEEPGAAETDADTDPEPAAGKKRKRQEDKGEAQEGGSGKKSVGGKKAKQAE”, which “transcriptional activation domain activity” value is on record?
**A.** 19200

**Q.** For “KQYCVRPNSGRIEPGSDVEVQILLQAMKEDPPLEAKCRDKFLVQSVAVSADKE”, which “transcriptional activation domain activity” value is on record?
**A.** 45400

**Q.** With “ALIHLPRPQNELVLTLIIRWLVRTTSPLGVIRAAQTHIGAIGYPDVWPTVLFF” as the sequence, how does the “transcriptional activation domain activity” value read?
**A.** 68900

**Q.** “LVLTGDAHSTYDVEVLVLMYILICGPFNFISGQLGEYRSIALVNVEFVVVWPA” was tested. Which “transcriptional activation domain activity” value did it give?
**A.** 63300

**Q.** How did the “transcriptional activation domain activity” value turn out when “AYNLILIIRWCLFIITIYYCYTLVLYHHYKVNFKQLIRKSMSPIKNNNLIHQF” was run?
**A.** 65300

**Q.** With “QQLGLWIFTWCACNFFLLFFVLKHSIHQKDINILIANVLDIWGLIDPQQILVK” as the sequence, how does the “transcriptional activation domain activity” value read?
**A.** 61600

**Q.** “LCILVYLSHVSYLTLLPRFDYLYNIIFNMVIGLSHNALWLVYSLPISAFRRFP” was tested. Which “transcriptional activation domain activity” value did it give?
**A.** 75800

**Q.** “YALEWNGLVVRSFAYHTVFGIAKVGFFLYHFLFSSFVFSLLLSLVIFFFFFFF” was tested. Which “transcriptional activation domain activity” value did it give?
**A.** 32600

**Q.** Which “transcriptional activation domain activity” value does the source give for “PSRPATPPRSSSAPTGISPNPRTRTCSSASCCASSRSPPSTTSPPTPPAAAAP” here?
**A.** 51100

**Q.** How did the “transcriptional activation domain activity” value turn out when “MLFPFRVSAISPDVICFIPLCFSFCYHFAIRVRGILPSRVRALMMYVWFVWYF” was run?
**A.** 51900

**Q.** Which “transcriptional activation domain activity” value does the source give for “IAMQPGEHQYDFEAHDFGLDLSDDLITQLEAGIGEYAWGSMPMDGNFWDQLYW” here?
**A.** 127000

**Q.** Which “transcriptional activation domain activity” value does the source give for “MPNDWFIYGCIFLECYISYGVYIRVWFLLMDFVLGPISHLSIYFLWIWFILLC” here?
**A.** 66900

**Q.** For “SWFIYSYDKEWIFLWHIPFPYPPIRTPSIPWVLYGLSVRFWSFISLLICNFFC”, which “transcriptional activation domain activity” value is on record?
**A.** 63300

**Q.** For “HQLGATESGLRAKNDGKLVQAEARAEGRVTFRTYLTYVRAAGTWTWMMTIFFL”, which “transcriptional activation domain activity” value is on record?
**A.** 52800

**Q.** With “QILICVIYVLVAYSRDDTSWSRVCYFMPCAPQSIKERDQAFSLFAGIFSFVVV” as the sequence, how does the “transcriptional activation domain activity” value read?
**A.** 39200

**Q.** “MGFLLLLLILVFFFVLYLFYSFLFFFSFHWACCILYDMWEKERVELYLLLLLL” was tested. Which “transcriptional activation domain activity” value did it give?
**A.** 42800

**Q.** How did the “transcriptional activation domain activity” value turn out when “KIHIVNMAQVIVLCIHRFLYGIIPLFEISTCIYFPLLVSLWHITYILFYIVMF” was run?
**A.** 55200

**Q.** For “ASASPARAPAAEVPPPVEIHVGDRCEVDRATGVARGTVRFVGEAEMPPPRPGA”, which “transcriptional activation domain activity” value is on record?
**A.** 42400

**Q.** For “PAVRVLPCNHGPGGDLCIICRTPLFQLTLFKYLMTKMCHVRTWLMFGILDLTF”, which “transcriptional activation domain activity” value is on record?
**A.** 47700

**Q.** How did the “transcriptional activation domain activity” value turn out when “ERLPVDLAVVCTIVERLFGLAVMTARLRKLGSLHGVLLPRTWVLALWRDFIRF” was run?
**A.** 67500

**Q.** Which “transcriptional activation domain activity” value does the source give for “QEQEQEGMELGIKEGPADPRCKTCGRTEGTRKCTGCGRVRYCGRECQKKDWKV” here?
**A.** 29700

**Q.** With “IPSHQFAFGRFMALSSTLGCKFFFSSFNSFFYIFFITLFFSLLLLPFFKNLFF” as the sequence, how does the “transcriptional activation domain activity” value read?
**A.** 39300

**Q.** “GEKGRKGGAEEGERRREEGGGRRRDEGERRGEGGAGSREGTGRAGEQGERGSR” was tested. Which “transcriptional activation domain activity” value did it give?
**A.** 19200

**Q.** How did the “transcriptional activation domain activity” value turn out when “LQRNILWGMLIFVLAQGLSSTIVVAGFLCTPLSQVWTTPTAIGGPTCINILTF” was run?
**A.** 61900

**Q.** With “IPHGKVGDIFLLFEFSYPIISTIIILFYYYYFYYLLSLHILYFFYYSRCWLLV” as the sequence, how does the “transcriptional activation domain activity” value read?
**A.** 42300

**Q.** Which “transcriptional activation domain activity” value does the source give for “AKKESKADGEEKPKAARGKKRKVDEEAEEEEGAEKPASKKAKPVSKAKSAAGS” here?
**A.** 17000

**Q.** How did the “transcriptional activation domain activity” value turn out when “MQDGEHEQRLNGRKLALEAENYIIISTRLQKPCIGVVQVLLLLIIMRTISASD” was run?
**A.** 79600

**Q.** How did the “transcriptional activation domain activity” value turn out when “RQRKDNHKEVERRRRGNINEGINELGRIVPNGSGEKAKGAILSRAVQYIHHLK” was run?
**A.** 13600

**Q.** How did the “transcriptional activation domain activity” value turn out when “MFLFLFLFVFLFVFLFLFLFLFLFLFLFLFMFPFLFPFLFPFPFPFPFPVLVL” was run?
**A.** 52700

**Q.** How did the “transcriptional activation domain activity” value turn out when “GSAFGQSAFGKPATGAFGAPTSAFGSNTTTNNNTTTTSSAFGSSTATSAFGSA” was run?
**A.** 14300

**Q.** How did the “transcriptional activation domain activity” value turn out when “DFDVNEFDPQVLFSTGTRTVEFMDDQNQPSSASAFLSTARPNHYSTHTPTTDV” was run?
**A.** 75300

**Q.** How did the “transcriptional activation domain activity” value turn out when “TISRLVFAECFAESCVMFLLLMFQALDVLEPSSRLLNWRISLYILMSMILLFV” was run?
**A.** 52800

**Q.** How did the “transcriptional activation domain activity” value turn out when “VVDYHTTYRRMIIVCLQSVLGLFRDMVEQFLGVIYTIYVLIRVFVVFPVWVIY” was run?
**A.** 61200

**Q.** How did the “transcriptional activation domain activity” value turn out when “MSSSDPLRKRDFEDSTRRLACDRCRGQKLRCERITGKTTSPCRRCVKARARCT” was run?
**A.** 35300

**Q.** How did the “transcriptional activation domain activity” value turn out when “MQCIFVHILLVFIINTFYLVHRLFSSSFLSSFTLFCFLYTHYSFLFFRLIHIS” was run?
**A.** 69500

**Q.** Which “transcriptional activation domain activity” value does the source give for “MSENVDPPSPHDKSEAPTKRGRGRPKGSKNKSAAAGAVEQEDPAPVIPRKRRL” here?
**A.** 36300

**Q.** With “DSKSDATPAWSDLKTKAGKERKRLPLACIVCRRKKIRCSGEKPACKHCLRARI” as the sequence, how does the “transcriptional activation domain activity” value read?
**A.** 41900

**Q.** For “SERSERRADERSSRNGPSEAERGSERERGGREKRGGDRESSRRERERGGEARE”, which “transcriptional activation domain activity” value is on record?
**A.** 17200

**Q.** For “STAARTHGSKRSRDEEDGEGEERAKKRSRSEERVNTTRETRATRATRATSARP”, which “transcriptional activation domain activity” value is on record?
**A.** 31100

**Q.** With “KEEEDRKRAEEEEERERERRRQDEVDRRRRMQDEAKQREAEAKKQAARAAALA” as the sequence, how does the “transcriptional activation domain activity” value read?
**A.** 35500

**Q.** With “SYLHSFLLSFLYPPSPLVSSPFTLLCSFPYFFSFLSFFFSFSFPYSSSCFVFH” as the sequence, how does the “transcriptional activation domain activity” value read?
**A.** 45000

**Q.** How did the “transcriptional activation domain activity” value turn out when “RRERKERKRARKEKDRRKRRHRRSQTDSDEEDRERHRDSRRKRSRSASRERRE” was run?
**A.** 20000

**Q.** How did the “transcriptional activation domain activity” value turn out when “LIVVCPCLNRAHPTCLKELQTDYICNMCNSIYQLKYIRFAQLLCFACHVLSLA” was run?
**A.** 84300

**Q.** “RWQYATLFFSGVSGGATLALSLCVITHPSLLTRIVVVCIFLTLISAFTILPIS” was tested. Which “transcriptional activation domain activity” value did it give?
**A.** 38500

**Q.** “RFLSFLLLLLVFFYPFVFFVLALVLCTFWSLFPSNTPLHSLVCRLQLLHPFVF” was tested. Which “transcriptional activation domain activity” value did it give?
**A.** 41400

**Q.** How did the “transcriptional activation domain activity” value turn out when “SYINTHNSNDNNNLMGSQARSNSQTPTASTIYEEAESQSSYLDDMFRTSQGGR” was run?
**A.** 43100

**Q.** With “EKTKRKKKSATGATKRAGSGEAKPKRQRKKKGRRGESGDEEESGDEEGAERRA” as the sequence, how does the “transcriptional activation domain activity” value read?
**A.** < 6570

**Q.** Which “transcriptional activation domain activity” value does the source give for “TSLESAPVHVPMHCGIQGVVGSLGVLVSASVVQCVRASIARDSEGGMEWMRVE” here?
**A.** 33600

**Q.** How did the “transcriptional activation domain activity” value turn out when “SRREDGVKVEDADDGGVSLEKGVEDLNIDNNNGKKEKGGVFVHCAAGKSRSVS” was run?
**A.** 43100

**Q.** Which “transcriptional activation domain activity” value does the source give for “IDHTDIHAHHADAHDDSFIESEEWLSKFIMDSQIDNDLKLNINHFNDIGFNNL” here?
**A.** 154000

**Q.** “EVLITKKPAKQTRGKKAPTAAVNKAEIEEGQDDVNFANVGRGRKRAVAKKVVE” was tested. Which “transcriptional activation domain activity” value did it give?
**A.** 25700

**Q.** How did the “transcriptional activation domain activity” value turn out when “MYILDKIKGEKGKQEGGEREAERGRGGAGRGEQEQEGGAGAGRGSRSKKGEQG” was run?
**A.** 30700

**Q.** With “TEAPPAPAPEGGDDEEDGEGDEGGEAAAGGKKKKKKKKPAEKKVPEAPAPKKG” as the sequence, how does the “transcriptional activation domain activity” value read?
**A.** 15400

**Q.** For “KGHVKTGILSANDGVPPTPNLLDYDWNNLNITGYEWISSELRDDALLSAVTLQ”, which “transcriptional activation domain activity” value is on record?
**A.** 131000
